Measured values taken from patent publication US20160040196A1, “ENZYMATIC CONVERSION OF BOTH ENANTIOMERS OF 1,2-PROPANEDIOL TO PROPIONALDEHYDE” (University of Georgia Research Foundation, Inc., priority 2014, published 2016).

Assays:
C[C@H](O)CO = assay: purified protein, by the assay type
OCC(O)CO = assay: purified protein, by the assay type
RiDD = assay: Hydrogen-driven conversion in a cell-free reactor (proof of concept, FIG. 2); type: biochemical, Roseburia inulinivorans; details: 10% (v/v) 1,2-propanediol, 1 atm hydrogen
Protocol: In the simplest embodiment the “cell free reactor” would include only “catalytic” amounts of the enzymes described herein. Specifically, a catalytic amount is one molecule and anything greater than one enzyme molecule. In the data shown in FIG. 2 of this disclosure the cell free reactor includes the following; 10 μM of RiDD, 100 μM yeast alcohol dehydrogenase (YADH), and 200 μM of the soluble hydrogenase from Ralstonia metallidurans (formally Alcaligenes eutrophus). The reaction was carried out under strictly anaerobic conditions (oxygen-free argon gas) and initiated by the addition of the reduced RiDD-AE (50 μM final) and S-adenosylmethionine (1 μM). 100% hydrogen gas was maintained in the head space of the reactor at 1 atm and the reaction also included 1 mM NADH, 20 mM TRIS pH 7.9, and 1% glycerol.
This experiment was performed in a 50 mL reactor with 20 mL liquid volume and the remaining headspace under 1 atm of oxygen-free hydrogen gas. Experimental conditions were as follows 20 mM Tris pH 7.9, 10% (v/v) 1,2-propanediol, 1% (v/v) glycerol 50 μM purified RiDD, 100 μM purified DhaT, 100 μM NAD+, and 100 μM purified H2ase. After a brief pre-incubation (20 min) period to insure strictly anaerobic conditions were achieved (less than 1 ppm O2), purified RiDD-AE in the reduced (formally [4Fe-4S]′) form was added to a final concentration of 50 μM to initiate the reaction. […]

[1] = substrate: C[C@@H](O)CO; assay: Coupled enzyme assay for the RiDD (NADH-dependent reduction of propionaldehyde by YADH); type: biochemical, Roseburia inulinivorans; details: other: substrate of RiDD; Michaelis-Menten fit, FIG. 7
Text: (§1) FIG. 5A depicts a chemical pathway describing how the conversion of glycerol, by an activated glycerol dehydratase can be easily monitored using purified DhaT and following the NADH-dependent reduction of 3-hydroxypropionaldehyde to 1,3-propanediol. Similarly, FIG. 5B depicts a chemical pathway for how the conversion of 1,2-propanediol, by an activated diol-dehydratase can be monitored by following the NADH-dependent reduction of propionaldehyde by YADH.
(§2) A coupled enzyme assay for the CbGD and the RiDD was performed as previously described^5 with minor modifications. Where indicated, varying amounts of the substrate (specifically, glycerol, R-1,2-propanediol, or S-1,2-propanediol) were added from pure stock solutions purchased through Sigma Chemical Company™ in some cases the stocks were diluted with ddH2O in order to allow for accurate measurement of the substrate at the lower concentrations. In addition, when glycerol was used as the substrate for the CbGD, the enzyme YqhD was included in the assay in place of yeast alcohol dehydrogenase (YADH) and […]. YqhD is an aldehyde reductase capable of the NADPH-dependent reduction of several aldehydes, including 3-hydroxypropionaldehyde and was overexpressed and purified from E. coli as previously described^9.

[2] = substrate: C[C@H](O)CO; assay: as above; type: biochemical, Roseburia inulinivorans; details: other: substrate of RiDD; Michaelis-Menten fit, FIG. 7
Text: as §1, §2

C. butyricum glycerol dehydratase (CbGD) (Clostridium butyricum)
Km (C[C@H](O)CO): 800 µM | Km (OCC(O)CO): 200 µM

CC(O)CO (racemic) [1,2-propanediol, propane-1,2-diol]
propanol titer from conversion of 1,2-propanediol (RiDD; after 6 hours, 1% glycerol): ~14 g/L

OCC(O)CO [glycerol, propane-1,2,3-triol]
concentration of glycerol over the reaction (RiDD; 1% (v/v) glycerol, FIG. 2): remained unchanged

B1: B12-independent diol dehydratase from R. inulinivorans (RiDD) (Roseburia inulinivorans) (protein)
chain: MGNYDSTPIAKSDRIKRLVDHLYAKMPEIEAARAELITESFKATEGQPVVMRKARAFEHILKNLPIIIRPEELIVGSTTIAPRGCQTYPEFSYEWLEAEFETVETRSADPFYISEETKKRLLAADAYWKGKTTSELATSYMAPETLRAMKHNFFTPGNYFYNGVGHVTVQYETVLAIGLNGVKEKVRKEMENCHFGDADYSTKMCFLESILISCDAVITYANRYAKMAEEMAEKETDAARRQELLTIARVCKNVPEFPAESFQEACQSFWFIQQVLQIESSGHSISPGRFDQYMYPYYEKDLKEGSLTREYAQELIDCIWVKLNDLNKCRDAASAEGFAGYSLFQNLIVGGQTVQGRDATNDLSFMCITASEHVFLPMPSLSIRVWHGSSKALLMRAAELTRTGIGLPAYYNDEVIIPALVHRGATMDEARNYNIIGCVEPQVPGKTDGWHDAAFFNMCRPLEMVFSNGYDNGEIASIQTGNVESFQSFDEFMEAYRKQMLYNIELMVNADNAIDYAHAKLAPLPFESCLVDDCIKRGMSAQEGGAIYNFTGPQGFGIANVADSLYTIKKLVFEEKRITMGELKKALEMNYGKGLDATTAGDIAMQVAKGLKDAGQEVGPDVIANTIRQVLEMELPEDVRKRYEEIHEMILELPKYGNDIDEVDELAREAAYFYTRPLETFKNPRGGMYQAGLYPVSANVPLGAQTGATPDGRLAHTPVADGVGPTSGFDISGPTASCNSVAKLDHAIASNGTLFNMKMHPTAMAGEKGLESFISLIRGYFDQQGMHMQFNVVDRATLLDAQAHPEKYSGLIVRVAGYSALFTTLSKSLQDDIIKRTEQADNR
Km [1]: 800 µM | Km [2]: 500 µM
